Results on six sequences are retold here after patent publication US20040018530.

Read-outs that look alike come from different tables or passages of the source.

The test system of data set [1] is IgE (immunoglobulin E, monoclonal, kappa light chain) (Homo sapiens). The conditions noted are these: affinity capillary electrophoresis with LIF; PBS, 1 mM MgCl2, 40 mM NaCl, pH 8.0, 25 C.
Data set [2] has the same test system. The conditions noted are these: affinity capillary electrophoresis with LIF; PBS, 1 mM MgCl2, 35 mM NaCl, pH 8.0, 25 C.
Data set [3] has the same test system. The note with it: CE-UV binding assay up to 2.5 uM IgE; round 1 pool 33% bound; PBS, 1 mM MgCl2, pH 8.0, 25 C.
Data set [4] shares this test system. The conditions noted are these: CE-UV binding assay up to 1.1 uM IgE; round 1 pool 67% bound; PBS, 1 mM MgCl2, pH 8.0, 25 C.
The test system is the same in data set [5]. The note with it: CE-UV binding assay; rounds 1, 2, 3 gave 62, 96, ~100% bound; PBS, 1 mM MgCl2, pH 8.0, 25 C.
Data set [6] shares this test system. The note with it: affinity capillary electrophoresis with LIF; PBS, 1 mM MgCl2, pH 8.0, 25 C; literature value 10 nM; cited from earlier work.

Usually Kd stands for the free concentration of one partner at which half of the binding sites on the other are occupied at equilibrium, for simple one-to-one binding. On to “AGCAGCACAGAGGTCAGATGGATGGGGGGGTCTAACGTGCGATCTGCCGACTTTATCCTGCCTATGCGTGCTACCGTGAA [Clone 2.27]”, for which the Kd in data set [1] was 52 nM.
“AGCAGCACAGAGGTCAGATGGTAATTTTCGCTGCGATTAGGCTTGTGACAAAATTACTATCCTATGCGTGCTACCGTGAA [Clone 1.8]” displayed a dissociation constant (Kd) in data set [2] of 293 nM.
“AGCAGCACAGAGGTCAGATGNNNNNNNNNNNNNNNNNNNNNNNNNNNNNNNNNNNNNNNNCCTATGCGTGCTACCGTGAA [CE-SELEX experiment 1 round 2 enriched pool]” registered a binding in data set [3] of 100 % bound.
“AGCAGCACAGAGGTCAGATGNNNNNNNNNNNNNNNNNNNNNNNNNNNNNNNNNNNNNNNNCCTATGCGTGCTACCGTGAA [CE-SELEX experiment 2 round 2 enriched pool]” gave a binding in data set [4] of 100 % bound.
“AGCAGCACAGAGGTCAGATGNNNNNNNNNNNNNNNNNNNNNNNNNNNNNNNNNNNNNNNNCCTATGCGTGCTACCGTGAA [CE-SELEX experiment 3 round 4 enriched pool]” had a binding in data set [5] of 100 % bound.
Consider “CTACCTACGATCTGACTAGCGGGGCACGTTTATCCGTCCCTCCTAGTGGCGTGCCCCGCTTACTCTCATGTAGTTCC [conventional SELEX IgE aptamer]”, for which the Kd in data set [6] was 4 nM.
